{"source": "patent US7125697B2", "about": "“Luciferase and photoprotein” (Chisso Corporation, priority 2000, dated 2006)", "molecules": {"B1": {"name": "35 kDa Protein: 35 kDa protein component of Oplophorus luciferase, positions 40–359 of SEQ ID NO: 4, without signal sequence (protein, listed as Oplophorus gracilorostris)", "chain": "AVACPAAEDIAPCTCKVGEGDVMDMDCSKVTSDAELASIFSKTFPSNTFRELFIEFNREITTLTADSLGAATFTKIAITSCTQLKTIEENAFMASAATLEKLVLLKNDLSSFPFEEMSQYTKLNWLELSVNSITGWPALSSDTLANLILFRNPIGNIPVDAFQTLPNIEQFNCFDCSITEVEAGTFTRSPKLQKLVLGYNGLTSLPVGAIKLHGHGPTTSNLGITNNQIISFPEGAVEGIQGILGIDFNRVTSLSEEVWRPILENLFQFSLLNNPLACVCDVMWLIDSPELLAKIKGNPRCAGGKRLKNLDPAVFHAMCQ"}, "B2": {"name": "19 kDa Protein: 19 kDa photoprotein component of Oplophorus luciferase, positions 28–196 of SEQ ID NO: 2, without signal sequence (protein, listed as Oplophorus gracilorostris)", "chain": "FTLADFVGDWQQTAGYNQDQVLEQGGLSSLFQALGVSVTPIQKVVLSGENGLKADIHVIIPYEGLSGFQMGLIEMIFKVVYPVDDHHFKIILHYGTLVIDGVTPNMIDYFGRPYPGIAVFDGKQITVTGTLWNGNKIYDERLINPDGSLLFRVTINGVTGWRLCENILA"}}, "key": {"[1]": {"assay": "Luminescence activity of proteins expressed in cell-free in vitro transcription-translation system", "type": "biochemical", "conditions": "no microsomal membrane (−); 1 μg coelenterazine", "source_text": "Using the expression vector, pKAZ-CMV, PSKAZ-CMV, pOL-CMV or pSOL-CMV prepared in Example 10, the 19 kDa or 35 kDa protein constituting Oplophorus luciferase was expressed by means of the in vitro transcription-translation system. As a positive control, pRL-CMV expressing Renilla luciferase was used. The in vitro transcription-translation system is capable of producing a protein from a recombinant plasmid or mRNA prepared from the plasmid and is particularly useful for the luminescence system with high sensitivity for the detection. In this Example, a commercially available in vitro translation kit (TNT in vitro transcription/translation kit; Promega) was used. A fraction of microsomal membranes capable of cleaving the signal sequence for secretion was also added in order to confirm the existence of the signal sequence in the expressed proteins. The in vitro translation mixture (25 μl in total) containing 0.5 μg of the plasmid DNA, 20 μl of rabbit reticulocyte lysate, 1 μl of 1 mM methionine and 2.5 μl of microsomal membranes was incubated at 30° C. for 90 min and then 1 μl of the mixture was subjected to the measurement of its luminescent activity. […] The reaction was started by the addition of a test sample and the intensity of the luminescence was measured by the luminometer."}, "[2]": {"assay": "Luminescence activity after expression in COS7 cells, coelenterazine substrate", "type": "cell-based", "conditions": "for Luminescence activity in Cell extracts, Coelenterazine: COS7 cell extracts; for Luminescence activity in Medium, Coelenterazine: COS7 culture medium", "procedure": "(§1) Expression of the proteins as a component of Oplophorus luciferase in mammalian cultured cells COS7 was conducted using the expression plasmids pKAZ-CMV, PSKAZ-CMV, pOL-CMV and pSOL-CMV constructed in Example 10 and pRL-CMV expressing Renilla luciferase as a control for the transfection of the host. COS7 cells (2×10^5 cells) were grown in a 35 mm well-plate containing 3 ml of Dulbecco's modified Eagle's media (Gibco BRL, Rockville, Md., USA) supplemented with 10% (v/v) heat-inactivated fetal calf serum (Gibco BRL), 100 U/ml penicillin and 100 μg/ml of streptomycin. The cells were cultured at 37° C. for 24 hours and then transfected with 2 μg of each plasmid DNA using FuGENE6 transfection reagent (Rosche Diagnostics, Mannheim, Germany). After further incubation for 36 hours, cells were separated from cultured media by centrifugation. The separated cells were suspended in 0.5 ml of phosphate-buffered saline, and subjected to repeated freeze-thawing at a temperature between 37° C. and −80° C. to obtain a cell extract. One μg of coelenterazine or bisdeoxy-coelenterazine was added as a substrate into the cell extract and the intensity of the luminescence was measured by the luminometer."}, "[3]": {"assay": "Luminescence activity after expression in COS7 cells, bisdeoxy-coelenterazine substrate", "type": "cell-based", "procedure": "as §1"}, "[4]": {"assay": "Renaturation of urea-solubilized 19 kDa protein with glycerol, luminescence activity", "type": "biochemical", "conditions": "for Luminescence Activity: 25° C., 30 minutes; for Luminescence Activity, relative value in parentheses: relative to 0 % glycerol", "procedure": "E. coli cells constructed in Example 12 which contain the expression vector pHis-KAZ and express the 19 kDa protein were disrupted by the sonication in 20 ml of a buffer comprising 20 mM Tris-HCl, pH 7.5. After centrifugation (12,000×g, 20 minutes), the precipitated fraction was subjected to the solubilization by treating with 20 ml of 20, mM Tris-HCl, pH 7.5 containing 8 M urea and then centrifuged (12,000×g, 20 minutes) to afford a soluble fraction. […] Subsequently, the soluble fraction was subjected to the nickel-chelated column chromatography and the desired protein was eluted by the linear gradient of imidazole from 0 to 0.3 M to give approximately 95% purity.\nConsequently, the protein was subjected to the renaturation step by treating with glycerol (the final concentration: from 0 to 90% (v/w)) as a solvent at 25° C. for 30 minutes to afford the 19 kDa protein renatured. As described above, the intensity of the luminescence was measured by the luminometer."}, "[5]": {"assay": "Preservation test of renatured 19 kDa protein, luminescence activity", "type": "biochemical", "conditions": "for luminescence activity on preservation: 4° C.; for Luminescence activity after preservation: 4 ° C.", "procedure": "Subsequently, the 19 kDa protein renatured was subjected to the preservation test, which comprises preserving the protein in the absence or presence of 50% (v/w) or 70% (v/w) glycerol at 4° C. for 30 days and then measuring its luminescence activity as mentioned above."}}, "data": [{"molecule": "B1", "values": [{"measurement": "Luminescence Activity", "setting": "[1]", "result": "<0.001", "unit": "rlu"}, {"measurement": "Luminescence activity in Cell extracts, Coelenterazine", "setting": "[2]", "result": "<0.001", "unit": "rlu"}, {"measurement": "Luminescence activity in Medium, Coelenterazine", "setting": "[2]", "result": 2.45, "unit": "rlu"}, {"measurement": "Luminescence activity in Cell extracts, Bisdeoxy-coelenterazine", "setting": "[3]", "result": "<0.001", "unit": "rlu"}]}, {"molecule": "B2", "values": [{"measurement": "Luminescence Activity", "setting": "[1]", "result": 1242.0, "unit": "rlu"}, {"measurement": "Luminescence activity in Cell extracts, Coelenterazine", "setting": "[2]", "result": "2,273.0 rlu"}, {"measurement": "luminescent intensity compared with pRL-CMV", "setting": "[2]; COS7 cells", "result": "equivalent to that from pRL-CMV"}, {"measurement": "Luminescence activity in Medium, Coelenterazine", "setting": "[2]", "result": 3.62, "unit": "rlu"}, {"measurement": "Luminescence activity in Cell extracts, Bisdeoxy-coelenterazine", "setting": "[3]", "result": "2,124.0 rlu"}, {"measurement": "luminescence activity before renaturation", "setting": "[4]; after 8 M urea solubilization and nickel-chelated column, before glycerol", "result": "no luminescence activity"}, {"measurement": "Luminescence Activity", "setting": "[4]; glycerol 0 % v/w", "result": 83, "unit": "rlu"}, {"measurement": "Luminescence Activity, relative value in parentheses", "setting": "[4]; glycerol 0 % v/w", "result": "(1.0)"}, {"measurement": "Luminescence Activity", "setting": "[4]; glycerol 10 % v/w", "result": 147, "unit": "rlu"}, {"measurement": "Luminescence Activity, relative value in parentheses", "setting": "[4]; glycerol 10 % v/w", "result": "(1.8)"}, {"measurement": "Luminescence Activity", "setting": "[4]; glycerol 20 % v/w", "result": 375, "unit": "rlu"}, {"measurement": "Luminescence Activity, relative value in parentheses", "setting": "[4]; glycerol 20 % v/w", "result": "(4.5)"}, {"measurement": "Luminescence Activity", "setting": "[4]; glycerol 30 % v/w", "result": "1,258 rlu"}, {"measurement": "Luminescence Activity, relative value in parentheses", "setting": "[4]; glycerol 30 % v/w", "result": "(15.2)"}, {"measurement": "Luminescence Activity", "setting": "[4]; glycerol 40 % v/w", "result": "1,818 rlu"}, {"measurement": "Luminescence Activity, relative value in parentheses", "setting": "[4]; glycerol 40 % v/w", "result": "(24.9)"}, {"measurement": "Luminescence Activity", "setting": "[4]; glycerol 50 % v/w", "result": "3,822 rlu"}, {"measurement": "Luminescence Activity, relative value in parentheses", "setting": "[4]; glycerol 50 % v/w", "result": "(46.0)"}, {"measurement": "Luminescence Activity", "setting": "[4]; glycerol 60 % v/w", "result": "4,860 rlu"}, {"measurement": "Luminescence Activity, relative value in parentheses", "setting": "[4]; glycerol 60 % v/w", "result": "(58.6)"}, {"measurement": "Luminescence Activity", "setting": "[4]; glycerol 70 % v/w", "result": "4,462 rlu"}, {"measurement": "Luminescence Activity, relative value in parentheses", "setting": "[4]; glycerol 70 % v/w", "result": "(53.8)"}, {"measurement": "Luminescence Activity", "setting": "[4]; glycerol 80 % v/w", "result": "2,842 rlu"}, {"measurement": "Luminescence Activity, relative value in parentheses", "setting": "[4]; glycerol 80 % v/w", "result": "(34.2)"}, {"measurement": "Luminescence Activity", "setting": "[4]; glycerol 90 % v/w", "result": "2,536 rlu"}, {"measurement": "Luminescence Activity, relative value in parentheses", "setting": "[4]; glycerol 90 % v/w", "result": "(30.6)"}, {"measurement": "luminescence activity on preservation", "setting": "[5]; absence of glycerol, 30 days", "result": "significantly decreased"}, {"measurement": "Luminescence activity after preservation", "setting": "[5]; glycerol 0 % v/w, 0 day", "result": 102, "unit": "rlu"}, {"measurement": "Luminescence activity after preservation", "setting": "[5]; glycerol 0 % v/w, 30 days", "result": 23, "unit": "rlu"}, {"measurement": "Luminescence activity after preservation", "setting": "[5]; glycerol 50 % v/w, 0 day", "result": "3,840 rlu"}, {"measurement": "Luminescence activity after preservation", "setting": "[5]; glycerol 50 % v/w, 30 days", "result": "3,734 rlu"}, {"measurement": "luminescence activity on preservation", "setting": "[5]; presence of glycerol (50% or 70% v/w), 30 days", "result": "maintained without decreasing"}]}]}
